Assay results as given in publication doi:10.1101/546648.

Biological target: OrnVc (oligoribonuclease) (Vibrio cholerae O1 El Tor?) (UniProt Q9KV17)
Assay: DRaCALA
Conditions: 5' phosphate

Substance: pGpG (GG, 2-mer)
- Kd: 90 nM
